# Test results published in patent US20190015518A1, “DRUG DELIVERY COMPOSITIONS AND METHODS” (priority 2016, published 2019).
# Key:
# [1] = Urinalysis of a healthy dog given 1.5 mg/kg on day 1 and 2.0 mg/kg on day 70, sub-mucosa; format: in vivo
# Experimental: Before each dose, the dog was examined by clinical chemistry, hematology, and urinalysis. Additional examinations of clinical chemistry and hematology were performed on days 7, 14, and 42 after the first dose. Additional tests of urinalysis were performed on days 7 and 14 after the first dose. The potential drug-induced toxicities were monitored for 56 days after the second dose. Specifically, clinical chemistry and urinalysis were performed on days 7, 14, 21, and 56, and hematology was performed on days 7, 14, and 56 after the second dose to evaluate the tolerability and toxicity of the formulation.
# Urianlyses were performed at pre- and post-dose for both injections. The injections were given via the sub-mucosa in the mouth.
# [2] = Pharmacokinetics in a healthy dog, oral sub-mucosa injection (SAAM II model); format: in vivo
# Experimental: Pharmacokinetics of HA-Lys-Pt were determined in a healthy dog by Xenometrics LLC (Stillwell, Kans.). […] After each injection, 2-mL serum samples were collected at 0, 0.25, 1, 2, 6, 24, 48, 96, and 168 hours. […] The samples were frozen at −80° C. until ICP-MS analysis. Prior to analysis, serum and urine samples were diluted 250 and 500-fold using 1% HNO3, respectively. The platinum calibration curve contained 4 replicates of 6 concentrations (0, 1, 10, 20, 40, and 50 ppb). The internal standard was bismuth at 50 ppb.
# The pharmacokinetics of the HA-Lys-Pt was measured using the serum and urine samples. The data was modeled using SAAM II software with a four compartmental model.
# As indicated by the model, q1, q2, q3, and q4 represent the central blood compartment, the body/tissue compartment, the injection site, and the urine compartment, respectively. The syringe represents the dose that was given to the injection site compartment. The two red circles indicate the two sampling sources, the serum from the q1 (s1), and the urine from the q4 (s2). Furthermore, five transfer rate constants and one loss rate constant were applied to the model to link the compartments and their individual differential equations for data analysis and simulation. The assignment of rate constants and pharmacokinetic interpretation has been discussed previously. The calculated PK parameters including AUC, clearance, volume of distribution at steady state (Vss), elimination half-lives (te), and transfer rate constants, are listed in Table 3.
# white blood cell DNA = assay: Pt-DNA adduct quantitation in white blood cell DNA; format: in vivo, rat; settings: cisplatin i.v. 10 mg/kg; HA-Lys-Pt s.c. 10 mg/kg cisplatin basis; 10 mg/kg
# Experimental: Whole blood was centrifuged (1500×g, 5 min., 4° C., no brake). Top layer (plasma) and middle layer (white blood cells) were transferred to new tubes. Plasma was frozen (−20° C.) until analysis. […] The white blood cell pellet was washed twice with cold PBS and re-suspended in 9 mL of white blood cell buffer (10-mM Tris, pH 7.4, 2.3% NaCl, 2-mM EDTA), and 900 μL of 1.1-M NH4HCO3, 900 μL of 10% SDS, and 75 μL of 2% Proteinase K were added and incubated at 42° C. overnight. Then, 3.3 mL of 5-M NaCl was added, samples shaken vigorously, and centrifuged twice (3200×g, 5 min, 4° C.), each time discarding the pellet. DNA was pelleted with 20 mL of ice-cold 100% ethanol and centrifuged (3200×g, 5 min, 4° C.); the DNA pellet was washed twice with 75% ethanol, re-suspended in water, and quantitated. DNA was digested in 1% HNO3 (800 μL total volume) overnight at 70° C. DNA samples were diluted 1:10 in 1% HNO3 and plasma samples were diluted 1:10,000 in 1% HNO3. Diluted samples were analyzed for Pt content using ICP-MS with a calibration curve from 1-1000 ppt.
# [3] = test system: 4T1.2-neu (murine breast cancer cells); assay: Anti-proliferative activity (Resazurin Blue, 72 hours); format: cell-based; settings: mean ± S.E.M., cisplatin basis
# Experimental: MDA-1986 (human head and neck squamous cell carcinoma), 4T1.2-neu (murine breast cancer cells), and A2058 (human melanoma) cells were maintained in Dulbecco's Modified Eagle Medium (DMEM, Corning, Manassas, Va.) with 4.5 g/L glucose, 4.5 g/L L-glutamine, and 10% fetal bovine serum in a humidified incubator at 37° C. and 5% CO2. Cells were seeded into 96-well plates (3,000 cells/well in 90 μL media) and allowed to attach overnight. […] Resazurin Blue (Acros Organics, Geel, Belgium) in PBS was added to each well (5-μM final concentration; 10-μL addition) and incubated at 37° C. for 4 hours. Fluorescence (λex 550 nm, λem 605 nm) was quantified with a SpectraMax Gemini XS plate-reader (Molecular Devices, Sunnyvale, Calif.). The relative growth of cells incubated with each compound concentration was normalized to vehicle-treated controls (100% proliferation). Data from at least three separate experiments performed in duplicate was analyzed using non-linear regression (GraphPad Prism 5.0) to generate IC50 values.
substance,measurement,setting,value
HA-cis-[Pt(NH3)2(N^α-Acetyl-L-Lysine)] [75HA-Lys-Pt],Urobilinogen,"[1]; 2 mg/kg, 7 days after",0.2 E.U./dL
same,urine Bilirubin,"[1]; 2 mg/kg, 7 days after",Moderate
same,urine Blood,"[1]; 2 mg/kg, 7 days after",Negative
same,urine Clarity,"[1]; 2 mg/kg, 7 days after",Clear
same,urine Color,"[1]; 2 mg/kg, 7 days after",Dark Yellow
same,urine Glucose,"[1]; 2 mg/kg, 7 days after",Negative
same,urine Ketones,"[1]; 2 mg/kg, 7 days after",Negative
same,urine Leukocytes,"[1]; 2 mg/kg, 7 days after",Negative
same,urine Nitrite,"[1]; 2 mg/kg, 7 days after",Negative
same,urine Protein,"[1]; 2 mg/kg, 7 days after",30 mg/dL
same,urine Specific Gravity,"[1]; 2 mg/kg, 7 days after",1.053
same,urine pH,"[1]; 2 mg/kg, 7 days after",7.0
same,Urobilinogen,"[1]; 2 mg/kg, 14 days after",0.2 E.U./dL
same,urine Bilirubin,"[1]; 2 mg/kg, 14 days after",Negative
same,urine Blood,"[1]; 2 mg/kg, 14 days after",Large
same,urine Clarity,"[1]; 2 mg/kg, 14 days after",Clear
same,urine Color,"[1]; 2 mg/kg, 14 days after",Light Yellow
same,urine Glucose,"[1]; 2 mg/kg, 14 days after",100 mg/dL
same,urine Ketones,"[1]; 2 mg/kg, 14 days after",Negative
same,urine Leukocytes,"[1]; 2 mg/kg, 14 days after",Negative
same,urine Nitrite,"[1]; 2 mg/kg, 14 days after",Negative
same,urine Protein,"[1]; 2 mg/kg, 14 days after",≥300 mg/dL
same,urine Specific Gravity,"[1]; 2 mg/kg, 14 days after",1.010
same,urine pH,"[1]; 2 mg/kg, 14 days after",7.5
same,Urobilinogen,"[1]; 2 mg/kg, 21 days after",1.0 E.U./dL
same,urine Bilirubin,"[1]; 2 mg/kg, 21 days after",Moderate
same,urine Blood,"[1]; 2 mg/kg, 21 days after",Small
same,urine Clarity,"[1]; 2 mg/kg, 21 days after",Clear
same,urine Color,"[1]; 2 mg/kg, 21 days after",Dark Orange
same,urine Glucose,"[1]; 2 mg/kg, 21 days after",Negative
same,urine Ketones,"[1]; 2 mg/kg, 21 days after",Trace
same,urine Leukocytes,"[1]; 2 mg/kg, 21 days after",Negative
same,urine Nitrite,"[1]; 2 mg/kg, 21 days after",Negative
same,urine Protein,"[1]; 2 mg/kg, 21 days after",30 mg/dL
same,urine Specific Gravity,"[1]; 2 mg/kg, 21 days after",1.044
same,urine pH,"[1]; 2 mg/kg, 21 days after",7.0
same,Urobilinogen,"[1]; 2 mg/kg, 56 days after",1.0 E.U./dL
same,urine Bilirubin,"[1]; 2 mg/kg, 56 days after",Moderate
same,urine Blood,"[1]; 2 mg/kg, 56 days after",Large
same,urine Clarity,"[1]; 2 mg/kg, 56 days after",Clear
same,urine Color,"[1]; 2 mg/kg, 56 days after",Dark Orange
same,urine Glucose,"[1]; 2 mg/kg, 56 days after",Negative
same,urine Ketones,"[1]; 2 mg/kg, 56 days after",Negative
same,urine Leukocytes,"[1]; 2 mg/kg, 56 days after",Negative
same,urine Nitrite,"[1]; 2 mg/kg, 56 days after",Negative
same,urine Protein,"[1]; 2 mg/kg, 56 days after",30 mg/dL
same,urine Specific Gravity,"[1]; 2 mg/kg, 56 days after",1.030
same,urine pH,"[1]; 2 mg/kg, 56 days after",8.0
same,Urobilinogen,"[1]; […], 7 days after",0.2 E.U./dL
same,urine Bilirubin,"[1]; […], 7 days after",Negative
same,urine Blood,"[1]; […], 7 days after",Negative
same,urine Clarity,"[1]; […], 7 days after",Cloudy
same,urine Color,"[1]; […], 7 days after",Yellow
same,urine Glucose,"[1]; […], 7 days after",Negative
same,urine Ketones,"[1]; […], 7 days after",Negative
same,urine Leukocytes,"[1]; […], 7 days after",Negative
same,urine Nitrite,"[1]; […], 7 days after",Negative
same,urine Protein,"[1]; […], 7 days after",Negative
same,urine Specific Gravity,"[1]; […], 7 days after",1.023
same,urine pH,"[1]; […], 7 days after",8.0
same,Urobilinogen,"[1]; […], 14 days",0.2 E.U./dL
same,urine Blood,"[1]; […], 14 days",Large
same,urine Clarity,"[1]; […], 14 days",Cloudy
same,urine Color,"[1]; […], 14 days",Yellow
same,urine Glucose,"[1]; […], 14 days",Negative
same,urine Ketones,"[1]; […], 14 days",Negative
same,urine Leukocytes,"[1]; […], 14 days",Negative
same,urine Nitrite,"[1]; […], 14 days",Negative
same,urine Protein,"[1]; […], 14 days",30 mg/dL
same,urine Specific Gravity,"[1]; […], 14 days",1.038
same,urine pH,"[1]; […], 14 days",6.5
same,long-term renal damage,[1]; healthy dog,did not appear to cause long-term renal damage
same,Clearance,[2]; 1st dose […],0.283 mL/min/kg
same,Tmax,[2]; 1st dose […],6 h
same,Vss,[2]; 1st dose […],7.4 L/kg
same,AUC,[2]; 2nd dose 2.0 mg/kg,218 µg·h/mL
same,Clearance,[2]; 2nd dose 2.0 mg/kg,0.153 mL/min/kg
same,Cmax,[2]; 2nd dose 2.0 mg/kg,3437 ng/mL
same,Tmax,[2]; 2nd dose 2.0 mg/kg,14.4 h
same,Vss,[2]; 2nd dose 2.0 mg/kg,2.5 L/kg
same,Pt-DNA adduct AUC,white blood cell DNA,4730 pg Pt×h/μg DNA
same,IC50,[3],80.1 ± 12.7 µM
